Results taken from paper doi:10.1101/2020.11.23.394270.

Biological target: T1, human urotensin II receptor (hUT), stably expressed in HEK 293 cells (human) (UniProt Q9UKP6)
T1 sequence: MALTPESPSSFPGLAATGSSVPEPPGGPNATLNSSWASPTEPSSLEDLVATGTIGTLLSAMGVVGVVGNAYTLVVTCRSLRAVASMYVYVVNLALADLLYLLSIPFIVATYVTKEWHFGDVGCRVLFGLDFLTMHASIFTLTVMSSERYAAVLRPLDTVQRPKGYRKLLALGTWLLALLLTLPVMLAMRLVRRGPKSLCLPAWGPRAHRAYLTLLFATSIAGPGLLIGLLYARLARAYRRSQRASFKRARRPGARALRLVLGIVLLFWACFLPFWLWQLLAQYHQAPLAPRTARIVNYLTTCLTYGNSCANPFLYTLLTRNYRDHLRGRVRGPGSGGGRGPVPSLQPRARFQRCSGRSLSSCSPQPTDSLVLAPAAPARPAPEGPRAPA

- Emax of β-arrestin 2 conformational change (BRET biosensor), HEK 293-hUT cells: 100%
Substance: human urotensin II (ligand)
